± gives the standard error. This sample holds only a part of the variants without activity.
B1: glmS ribozyme (parent)
chain: AUAAAAGCGCCAGAACUACAGAAAUGUAGUUGACGAGGAGGAGGUUUAUCGAAUUUUCGGCGGAUGCCUCCAAA

Columns and labels:
Details in all cases: with glucosamine-6-phosphate
glucosamine-6-phosphate [1] = variants of: B1; assay: self-cleavage kobs at 160 uM GlcN6P; higher = faster cleavage; RNA array
Procedure, shortened: (§1)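 Tiles bearing barcoded ribozyme variants, transcribed in situ by E. coli RNA polymerase on sequenced MiSeq chips, were imaged over ~14 h at 37 °C using a hybridised Cy3 probe. Glucosamine-6-phosphate was supplied at 40 μM to 10 mM in HEPES/KCl/Mg(OAc)2 buffer. kobs came from one- or two-exponential decay fits to normalised per-tile medians, and weighted Michaelis–Menten fits then provided kcat and KM.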

glucosamine-6-phosphate [2] = variants of: B1; assay: self-cleavage kobs at 640 uM GlcN6P; higher = faster cleavage; RNA array
Procedure, shortened: as §1

glucosamine-6-phosphate [3] = variants of: B1; assay: self-cleavage kobs at 2500 uM GlcN6P; higher = faster cleavage; RNA array
Procedure, shortened: as §1

glucosamine-6-phosphate [4] = variants of: B1; assay: self-cleavage kobs at 10000 uM GlcN6P; higher = faster cleavage; RNA array
Procedure, shortened: as §1

Variant | self-cleavage kobs at 160 uM GlcN6P (glucosamine-6-phosphate [1]) [s⁻¹] | self-cleavage kobs at 640 uM GlcN6P (glucosamine-6-phosphate [2]) [s⁻¹] | self-cleavage kobs at 2500 uM GlcN6P (glucosamine-6-phosphate [3]) [s⁻¹] | self-cleavage kobs at 10000 uM GlcN6P (glucosamine-6-phosphate [4]) [s⁻¹]
U57C G60U | < 1e-05 | < 1e-05 | < 1e-05 | < 1e-05
U45A A53G C71U | 0.00381 ± 0.0013 | 0.00623 ± 0.0015 | 0.00735 ± 0.0025 | –
G35A G41U A48G | < 1e-05 | – | < 1e-05 | –
U30A U56C G60U A64C | < 1e-05 | < 1e-05 | – | –
A33U U65G | < 1e-05 | < 1e-05 | – | –
G7C G13U A36C C68A | < 1e-05 | – | < 1e-05 | –
G9A A12U U31A A52G G59C | < 1e-05 | – | < 1e-05 | –
G7C C16G | < 1e-05 | < 1e-05 | – | < 1e-05
G7U C34G | < 1e-05 | < 1e-05 | – | –
A6G U47C C67G | < 1e-05 | < 1e-05 | – | –
C10G U65C | < 1e-05 | < 1e-05 | < 1e-05 | < 1e-05
C11U C34U G66C | < 1e-05 | – | < 1e-05 | –
C10G C11A C16U G38U | < 1e-05 | < 1e-05 | – | < 1e-05
A14U U49C U57G C70G | 9.25e-05 ± 2.7e-05 | 6.79e-05 ± 2.7e-05 | 6.68e-05 ± 2.2e-05 | –
G40C U69A | < 1e-05 | – | < 1e-05 | –
C10U G13U A42U U46G U57A | < 1e-05 | < 1e-05 | < 1e-05 | –
G7A A48U A53U U65A | < 1e-05 | < 1e-05 | – | –
G13A U45C C50U C71G | < 1e-05 | < 1e-05 | < 1e-05 | –
A14G A33G G60U | < 1e-05 | < 1e-05 | < 1e-05 | –
G38A G44U C58A | < 1e-05 | < 1e-05 | < 1e-05 | –
C8G U30A G40U | < 1e-05 | – | < 1e-05 | –
C8A A33C G35U G63U | < 1e-05 | < 1e-05 | < 1e-05 | –
G9A G38A G51A | < 1e-05 | < 1e-05 | < 1e-05 | –
C50U U56C C67U | < 1e-05 | – | – | –
G32U G60U | < 1e-05 | < 1e-05 | < 1e-05 | –
A53C U56A G59C G63U | < 1e-05 | < 1e-05 | < 1e-05 | –

Variant | self-cleavage kobs at 160 uM GlcN6P (glucosamine-6-phosphate [1]) [s⁻¹] | self-cleavage kobs at 640 uM GlcN6P (glucosamine-6-phosphate [2]) [s⁻¹] | self-cleavage kobs at 2500 uM GlcN6P (glucosamine-6-phosphate [3]) [s⁻¹] | self-cleavage kobs at 10000 uM GlcN6P (glucosamine-6-phosphate [4]) [s⁻¹]
A14G C16U C34A G41A A52C | < 1e-05 | – | < 1e-05 | –
C8A C16U U31C G38A U56C | < 1e-05 | – | – | < 1e-05
A15C C50G | 0.000107 ± 3.2e-05 | – | 0.000205 ± 5.8e-05 | –
C16U C58G C68G | 0.000169 ± 4.4e-05 | 0.000132 ± 3.4e-05 | 7.79e-05 ± 1.5e-05 | –
G37C A39G G44A | < 1e-05 | < 1e-05 | – | –
C8A G13U G35U C68G | 0.000168 ± 3.8e-05 | – | – | –
G7C U55A A64U | < 1e-05 | < 1e-05 | < 1e-05 | –
U47C G62C | < 1e-05 | < 1e-05 | < 1e-05 | < 1e-05
C10G C11U C16A A33U C34U C50G C70U | 4.84e-05 ± 2.3e-05 | 4.89e-05 ± 1.6e-05 | 6.14e-05 ± 2.5e-05 | –
G9C G37A U46A A52U G60A C61A | < 1e-05 | – | < 1e-05 | –
G43C U55G U56G C67G | < 1e-05 | – | – | –
G37C G41A C50G G60A C67G C68A | 9.12e-05 ± 1.6e-05 | 8.46e-05 ± 1.9e-05 | 9.58e-05 ± 1.3e-05 | –
U30C U54G C68A | 0.000132 ± 4.9e-05 | – | – | –
C10A C68G | 0.000416 ± 0.00019 | 6.2e-05 ± 2.8e-05 | 6.4e-05 ± 1.8e-05 | –
U46A C61G | < 1e-05 | < 1e-05 | < 1e-05 | –
G9A U49A | < 1e-05 | < 1e-05 | < 1e-05 | –
C16G A48G C68A C71G | 5.61e-05 ± 2.2e-05 | 0.000118 ± 3.8e-05 | – | –
G7A C71G | < 1e-05 | – | – | –
G35U G51A | < 1e-05 | < 1e-05 | – | < 1e-05
G35C G60U G62C | < 1e-05 | < 1e-05 | – | –
G32U U45G C70A | < 1e-05 | < 1e-05 | – | –
A48U G51U | < 1e-05 | – | < 1e-05 | –
G40C A53U C70U | 9.81e-05 ± 3.6e-05 | 9.65e-05 ± 2.1e-05 | 0.000268 ± 5.4e-05 | –
C8G G35U G66A | < 1e-05 | < 1e-05 | – | –
C8A G13A G37U C67U C68U | 8.8e-05 ± 3.5e-05 | 0.000297 ± 8.5e-05 | – | –

Source: the supplement of paper PMC7125110
